Patent publication US20130071374A1 (UNIVERSITY OF MEDICINE AND DENTISTRY OF NEW JERSEY, published 2013)

Columns and labels:
MazF(His)6 = MazF(His)6 (Escherichia coli, UniProt P0AE70 1-111); assay: tricine SDS-PAGE of the purified complex, densitometry
MazF = biological target: T1, MazF (Escherichia coli, UniProt P0AE70 1-111); assay: native PAGE, second dimension SDS-PAGE, densitometry
T1 sequence: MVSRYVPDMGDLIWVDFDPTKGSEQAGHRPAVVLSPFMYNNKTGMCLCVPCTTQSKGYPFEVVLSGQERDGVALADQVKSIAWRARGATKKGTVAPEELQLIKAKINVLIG

PemK(His)6 = biological target: T2, PemK(His)6 (E. coli (plasmid R100), UniProt P13976 24-133); assay: co-purification on Ni-NTA after co-expression
T2 construct: also called Kid

B1: MazE (other)
chain: MIHSSVKRWGNSPAVRIPATLMQALNLNIDDEVKIDLVDGKLIIEPVRKEPVFTLAELVNDITPENLHENIDWGEPKDKEVW
notes: also called antitoxin MazE; ChpAI
ratio of MazF(His)6 to MazE in the complex (MazF(His)6): ~2

B2: (His)6MazE (other)
chain: MIHSSVKRWGNSPAVRIPATLMQALNLNIDDEVKIDLVDGKLIIEPVRKEPVFTLAELVNDITPENLHENIDWGEPKDKEVW
notes: also called wild-type (His)6MazE; MazE with N-terminal (His)6 tag
ratio of MazF to (His)6MazE in the complex (MazF): ~1.8

B3: PemI (other)
chain: MHTTRLKRVGGSVMLTVPPALLNALSLGTDNEVGMVIDNGRLIVEPYRRPQYSLAELLAQCDPNAEISAEEREWLDAPATGQEEI
binding result (PemK(His)6): binds
